# According to patent publication US20170305994A1 (Novo Nordisk, published 2017):
# T1: human DR3 with the death domain deleted (ΔM339-P417 of SEQ ID NO:1), expressed on CHOK1SV cells (human, UniProt Q93038 25-338)
# T1 construct: also called truncated DR3; hDR3 expressing CHO cells
# T1 sequence: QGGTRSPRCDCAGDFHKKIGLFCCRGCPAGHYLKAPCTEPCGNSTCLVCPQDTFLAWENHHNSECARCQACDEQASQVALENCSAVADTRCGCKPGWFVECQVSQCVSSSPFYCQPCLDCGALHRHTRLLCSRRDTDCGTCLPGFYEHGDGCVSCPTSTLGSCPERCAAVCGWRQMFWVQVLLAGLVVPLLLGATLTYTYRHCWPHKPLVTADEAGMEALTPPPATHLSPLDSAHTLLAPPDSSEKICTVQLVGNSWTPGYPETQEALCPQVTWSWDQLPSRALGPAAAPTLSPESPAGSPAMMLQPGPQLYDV
# T2: human DR3 (full length, on cells) (human, UniProt Q93038 25-417)
# T2 sequence: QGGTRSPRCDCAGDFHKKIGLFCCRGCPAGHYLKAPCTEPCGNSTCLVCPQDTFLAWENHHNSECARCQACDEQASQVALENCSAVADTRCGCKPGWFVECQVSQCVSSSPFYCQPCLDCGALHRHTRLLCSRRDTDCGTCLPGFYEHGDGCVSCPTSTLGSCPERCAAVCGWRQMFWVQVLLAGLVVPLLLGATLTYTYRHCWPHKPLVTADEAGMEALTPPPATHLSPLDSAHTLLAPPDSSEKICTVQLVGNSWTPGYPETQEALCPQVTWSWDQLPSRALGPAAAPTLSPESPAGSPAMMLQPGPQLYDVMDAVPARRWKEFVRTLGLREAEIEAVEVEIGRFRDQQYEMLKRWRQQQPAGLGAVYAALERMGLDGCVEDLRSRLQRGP
# T3: cynomolgus DR3 (on HEK293 reporter cells) (cynomolgus, UniProt A0A2K5WJ09 98-464)
# T3 sequence: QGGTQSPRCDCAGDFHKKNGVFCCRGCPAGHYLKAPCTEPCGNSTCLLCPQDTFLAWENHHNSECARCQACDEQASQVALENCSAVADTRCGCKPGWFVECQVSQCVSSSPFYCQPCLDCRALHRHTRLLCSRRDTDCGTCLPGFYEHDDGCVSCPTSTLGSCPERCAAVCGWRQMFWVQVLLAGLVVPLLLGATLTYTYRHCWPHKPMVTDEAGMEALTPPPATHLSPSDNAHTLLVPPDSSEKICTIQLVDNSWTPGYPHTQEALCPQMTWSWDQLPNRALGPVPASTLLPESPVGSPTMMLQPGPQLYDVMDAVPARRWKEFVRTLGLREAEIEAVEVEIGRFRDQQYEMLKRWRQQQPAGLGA
# What was measured:
# [1] = molecular target: T1, human DR3 with the death domain deleted …; assay: flow cytometry competition: Fab vs TL1A on hDR3-expressing CHO cells
# [2] = molecular target: T2, human DR3 (full length, on cells); assay: cell-based or functional assay
# [3] = molecular target: T2, human DR3 (full length, on cells); assay: cell-based or functional assay; remark: listed apart in the source
# DR3 (CRD1)-Fc = molecular target: T4, DR3 (CRD1)-Fc (human); assay: SPR Biacore T200, DR3(CRD1)-Fc captured by anti-human IgG, Fab as analyte, 25 C, 1:1 model, mean of 3 surface densities
# T4 construct: Amino acids 25-71 of DR3 fused to the Fc domain of human IgG4; purified to exclude oligomers (mainly dimeric)
# Procedure: The experiments were performed on a Biacore T200 instrument (GE Healthcare) and analysed with the Biacore T200 Evaluation Software. Anti human IgG antibodies (human IgG capture kit from GE Healthcare) were immobilized on all flow cells of a CM5 sensor chip according to manufacturer's instructions. HBS-EP (GE Healthcare) with 0.1% human serum albumin was used as running buffer. DR3(CRD1)-Fc (SEQ ID NO:2) was captured on the chip at low surface densities between 14 and 45 RU. Fab fragments were diluted to concentrations between 90 and 0.037 nM and subsequently injected for 360 s. […] Binding curves were measured at 25° C. with a flow rate between 30 and 60 μL/min.
# Regeneration was performed with 3 M […] for 2×20 s. The raw data were double referenced by subtraction of the signals from a reference flow cell without captured ligand and a buffer blank. Determination of the kinetic parameters was performed by fitting with a 1:1 binding model using the Biacore T200 Evaluation Software (GE Healthcare). Average values obtained from 3 different surface densities of DR3(CRD1)-Fc (SEQ ID NO:2) were calculated and are stated in table 14
# [4] = molecular target: T2, human DR3 (full length, on cells); assay: cell-based or functional assay; remark: listed apart in the source
# [5] = molecular target: T1, human DR3 with the death domain deleted …; assay: FACS on DR3 expressing cells; competitor Mab 0107
# [6] = molecular target: T3, cynomolgus DR3 (on HEK293 reporter …); assay: cell-based or functional assay
# T4 sequence (chain, as listed by the source limits assumed): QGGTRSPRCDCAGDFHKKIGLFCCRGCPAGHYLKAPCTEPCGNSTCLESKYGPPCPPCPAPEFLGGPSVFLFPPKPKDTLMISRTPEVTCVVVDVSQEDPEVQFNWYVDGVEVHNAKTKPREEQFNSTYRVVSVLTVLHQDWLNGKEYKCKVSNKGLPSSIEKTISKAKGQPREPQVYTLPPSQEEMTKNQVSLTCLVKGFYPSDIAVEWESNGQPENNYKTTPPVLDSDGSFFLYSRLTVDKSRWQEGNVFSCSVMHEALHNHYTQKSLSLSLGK
binder,measurement,setting,value
"0228 (humanized Fab of 27F44, IgG4, hz0072VH S49A / hz0072VL) (Fab, V domains shown, IgG4-Cys, hz (humanized IgG4 Fab with the hinge cysteine kept)) VH: EVQLVESGGGLVQPGGSLRLSCAASGFTFSNYDMSWVRQATGKGLEWVAAFSSDGYTFYPGSVKGRFTISRENAKNSLYLQMNSLRAGDTAVYYCARHADYANYPVMDYWGQGTLVTVSS VL: DIQMTQSPSSLSASVGDRVTITCRASKSVSTSGYSYMHWYQQKPGKAPKLLIYLASNLESGVPSRFSGSGSGTDFTLTISSLQPEDFATYYCQHSRELPLTFGGGTKVEIKR",IC50,[1],0.484 nM
same,max percentage inhibition,[1],78%
same,"IC50 of Fab upon stimulation by TL1A, transient reporter",[2],0.645 nM
same,"IC50 at 40 ng/ml TL1A, I5 reporter cells",[3],0.32 nM
same,Kd,DR3 (CRD1)-Fc,0.00805 nM
same,koff,DR3 (CRD1)-Fc,3.19e-05 s⁻¹
same,kon,DR3 (CRD1)-Fc,3.97e+06 M⁻¹ s⁻¹
same,"IC50, TNFalpha inhibition, TL1A-activated CD4+ T cells, donor 1",[4],0.3 nM
same,"IC50, TNFalpha inhibition, TL1A-activated CD4+ T cells, donor 2",[4],0.17 nM
same,"IC50, TNFalpha inhibition, average (n 3)",[4],0.189 nM
same,"max % inhibition of TNFalpha, donor 1",[4],92.2%
same,"max % inhibition of TNFalpha, donor 2",[4],82.3%
same,molar ratio Mab/Fab from which the Fab inhibits,[5],1 Fab per Mab (molar ratio Mab/Fab 1:n)
same,"IC50 at 40 ng/ml TL1A, Lyda20 reporter cells",[6],628 nM
